In patent US20240352121A1, “LAIR-1 AGONISTIC ANTIBODIES AND METHODS OF USE THEREOF” (NEXTCURE, INC., priority 2023, published 2024):

Tests used:
[1] = tested on: AML patient LSCs engrafted in mice; assay: AML patient-derived xenograft (PDX) model; format: in vivo, NSG-SGM3 mice; settings: 5 mg/kg i.p. weekly, 4 doses; at any time point
Experimental: (§1) Newborn (3-5 day from birth) NSG-SGM3 pups were sub-lethally (200 cGy) irradiated. 12 hours post-irradiation, mice were intra-hepatically transplanted with 0.2e6 AML bone-marrow cells or normal CD34 HSCs from cryopreserved stocks. 6 weeks post-transplant, blood was collected to assess engraftment of progenitor cells via flow cytometry, staining for human CD45, human CD33, and human CD3. Once engraftment of human cells was confirmed, 5 mg/kg of anti-human LAIR-1 mAb or isotype control was intraperitoneally injected weekly for a total of 4 doses. At the indicated timepoints post-treatment, blood was collected to assess the proliferation of AML cells as a measure of LAIR-1 mAb anti-leukemic activity as compared to isotype control. For standard-of-care combination studies, PDX mice were treated with 20 mg/kg venetoclax 5 days on and 2 days off for 5 weeks, and X 1.5 mg/kf-tiw azacytidine upfront one week only. LAIR-1 mAb was treated i.p. once per week for 5 weeks. Blood was harvested as described above to measure leukemic growth and spleens were harvested at endpoint and weighed for assessment of splenomegaly. For secondary transplant studies, mice were engrafted as above. […] Leukemia progression in recipient mice was measured by flow cytometry by quantifying the percent of human CD33^+ human CD45^+ cells in peripheral blood at weeks 4, 6, and 10 weeks post-transplant.

[2] = tested on: LSCs within the bone-marrow of PDX donor animals; assay: PDX secondary transplant model; format: in vivo, NSG-SGM3 mice; settings: bone-marrow from PDX donors treated for 4 weeks; no further treatment
Experimental: as §1

THP-1 cells = assay: THP-1-luciferase cell-derived xenograft (CDX) model; format: in vivo, NSG mice; settings: 10 mg/kg i.p. twice a week
Experimental: FIGS. 29A-29C display h11B3 LAIR-1 mAbs, containing a variable light chain of SEQ ID NO: 16 and a variable heavy chain of SEQ ID NO:27, limits Leukemic cell growth in CDX Models. 2e6 luciferase-expressing MV4-11-Luc or THP-1-Luc cells were suspended in sterile PBS and implanted into NSG mice via tail-vein injection. Starting on day 8 post-challenge, mice were treated twice-weekly by intraperitoneal (i.p.) injection of 10 mg/kg of h11B3 LAIR-1 mAbs, containing a variable light chain of SEQ ID NO: 16 and a variable heavy chain of SEQ ID NO:27, or isotype (FIG. 29A). AML cell proliferation was monitored by weekly i.p. injection of D-Luciferin, immediately followed by IVIS bioluminescent imaging and quantification of luminescent signal. Mice NOD.Cg-Prkdcscid Il2rgtm1Wjl/SzJ (NSG) purchased from Jackson Labs strain #005557. Substrate Xenolight RediJect D-Luciferin Perkin Elmore Cat #770504. Imaging Perkin Elmore IVIS Lumina XRMS Series III.
NSG mice were injected with 2e6 THP-1 luciferase cells or 2e6 MV4-11-luciferase cells via tail vein injection. Leukemia progression was quantified by i.p. injection of 100 μL bioluminescent substrate and IVIS imaging 8 minutes post injection. Progression was assessed weekly staring on Day 7 post-challenge. […] Tumor growth was measured by calipers twice weekly until end point.

AML patient cells = assay: Ex vivo depleting assay, AML patient blood leukocytes; format: cell-based, human
Experimental: Whole blood from AML-diagnosed donors was RBC-depleted using StemCell RBC depletion kit following the manufacturer's instructions. Leukocytes were re-suspended in complete RPMI media containing 3 μg/mL of soluble mAb, then plated in 96-well round-bottom plates for 48 hours at 37° C. Cell death was analyzed by AnnexinV and Fixable Live-Dead staining following the manufacturer's instructions, quantified by flow cytometry. RBC depletion StemCell Ref #18170. Isotype=FC-G1 BioXcell Ref #BE0096. Live-Dead Stain Invitrogen Cat #L34966. AnnexinV-AF647 Biolegend Cat #640943.
Fresh whole blood was RBC-depleted using the EasySep™ RBC Depletion Reagent (StemCell, Vancouver, BC) following the manufacturer's protocol. Alternatively, frozen PBMCs were thawed in pre-warmed cRPMI media. Cell number was determined by VI-Cell XR cell counter. 2e5 cells per well were plated into 96-well plates lacking or containing 50 μg/mL pre-coated human Collagen I (StemCell, Vancouver, BC) in 200 μL of cRPMI containing 10 μg/mL of soluble LAIR-1 mAb or isotype control antibody (NP782 (NextCure, Beltsville, MD) or InVivoMAb recombinant human IgG1 Fc (BioXcell, Lebanon, NH)). Plates were centrifuged at 100×g for 2 minutes, then incubated for 20 hours at 37° C. in a TC incubator. At the end of incubation period, plates were centrifuged at 500×g for 4 min. […]

[3] = tested on: blood leukocytes from healthy (non-AML) donors; assay: Ex vivo depleting assay, healthy donor blood leukocytes; format: cell-based, human; settings: even in the presence of collagen ECM
Experimental: Fresh whole blood was RBC-depleted using the EasySep™ RBC Depletion Reagent (StemCell, Vancouver, BC) following the manufacturer's protocol. Alternatively, frozen PBMCs were thawed in pre-warmed cRPMI media. Cell number was determined by VI-Cell XR cell counter. 2e5 cells per well were plated into 96-well plates lacking or containing 50 μg/mL pre-coated human Collagen I (StemCell, Vancouver, BC) in 200 μL of cRPMI containing 10 μg/mL of soluble LAIR-1 mAb or isotype control antibody (NP782 (NextCure, Beltsville, MD) or InVivoMAb recombinant human IgG1 Fc (BioXcell, Lebanon, NH)). Plates were centrifuged at 100×g for 2 minutes, then incubated for 20 hours at 37° C. in a TC incubator. At the end of incubation period, plates were centrifuged at 500×g for 4 min. Cells were resuspended and then transferred to a 96-well round-bottom plate for cell staining and flow cytometry as described above.

MV4-11 cells = assay: Phospho-array on in vivo grown MV4-11 cells, subcutaneous CDX model; design: species or system NSG mice; settings: 10 mg/kg weekly i.p.
Experimental: NSG mice were injected with 2e6 THP-1 luciferase cells or 2e6 MV4-11-luciferase cells via tail vein injection. Leukemia progression was quantified by i.p. injection of 100 μL bioluminescent substrate and IVIS imaging 8 minutes post injection. Progression was assessed weekly staring on Day 7 post-challenge. 10 mg/kg mab treatment was performed by i.p injection starting on day 8 and continuing twice a week until the end of the study. For the subcutaneous engraftment model, NSG mice were subcutaneously injected on the right flank with 5e6 MV4-11-Luc-LAIR-1^OE cells. Mice were treated by weekly i.p. injection of 10 mg/kg mAb. Tumor growth was measured by calipers twice weekly until end point.

B1: LAIR-1 mAb: humanized agonist anti-LAIR-1 mAb, IgG1 backbone; h11B3 VL-2 (SEQ ID NO: 16), h11B3 VH-3 (SEQ ID NO: 27) (antibody, V domains shown)
VH: EVQLVESGGGLVQPGGSLKLSCAASGFTFNTNAMYWVRQAPGKGLEWVGRIRSKSSNYATYYAASVKGRFTISRDDSKNTLYLQMNSLKTEDTAVYYCVRGGSGFFAYWGQGTLVTVSS
VL: DIQMTQSPSSLSASLGDRVTITCKASEDIYIRLAWYQQKPGKAPRLLISTATSLETGVPSRFSGSGSGTDYTFTISSLQPEDIATYYCQQYWSTPYTFGGGTRLEIK
modifications: IgG1 constant regions; Synthetic: h11B3 VH-3; Synthetic: h11B3 VL-2
For B1, the “human CD45 CD33 cells in circulation” value [1] was less than 10%, the “disease development in secondary recipient mice” value [2] was “developed no disease” and the “leukemic cell growth in vivo” value (THP-1 cells) was “inhibited leukemic cell growth”. The AML cell death (AML patient cells; 3 μg/mL soluble mAb, 48 hours) was “induces AML cell death”, the “cell death of total AML patient cells or CD45Low SSCLow blasts” value (AML patient cells; 10 μg/mL, plate-coated collagen) was “significant cell death” and the “depletion of blood leukocytes” value [3] was “did not deplete”. For the same molecule, the MAPK pathway (MV4-11 cells) was “significantly suppressed” and the “activation of mTORC, AKT, and NF-kB” value (MV4-11 cells) was “inhibited activation”.
